Results taken from patent US20260242478A1 (published 2026).
Where no end group is shown, it is not given here.

B1: Phage-1116 (peptide)
peptide: YCQGHSVEHMAKCL
notes: Peptide-87 library clone, tested as clonal phage (peptide fused to pIII of the bacteriophage)
B2: Phage-1117 (peptide)
peptide: YCAGHMPIYMTKCL
notes: as for B1
B3: Phage-1118 (peptide)
peptide: YCDGHRAEYMLKCL
notes: as for B1
B4: Phage-1119 (peptide)
peptide: YCEGHLVQYMQKCL
notes: as for B1
B5: Phage-1120 (peptide)
peptide: YCMGHLPIYMEKCL
notes: as for B1
B6: Phage-1121 (peptide)
peptide: YCEGHLPRYMLKCL
notes: as for B1
B7: Phage-1122 (peptide)
peptide: YCDGHLEVYMDKCL
notes: as for B1
B8: Phage-1123 (peptide)
peptide: YCDGHSPAYLQKCL
notes: as for B1
B9: Phage-1124 (peptide)
peptide: YCEGHSSQWMWKCL
notes: as for B1
B10: Phage-1125 (peptide)
peptide: YCEGHFPLYMNKCL
notes: as for B1
B11: Phage-1126 (peptide)
peptide: YCEGHSTEYMAKCL
notes: as for B1
B12: Phage-1127 (peptide)
peptide: YCEGHQPAYMEKCL
notes: as for B1
B13: Phage-1128 (peptide)
peptide: YCDGHAEEYRMKCL
notes: as for B1
B14: Phage-1129 (peptide)
peptide: YCDGHLPVYMTKCL
notes: as for B1
B15: Phage-1102 (Peptide-87 library clone, SEQ ID NO: 1418) (peptide)
peptide: YCDGHLPLYMQKCF
notes: Tested as clonal phage supernatant; not shown: pIII coat protein of the bacteriophage to which the peptide is fused
B16: Phage-1103 (Peptide-87 library clone, SEQ ID NO: 1419) (peptide)
peptide: YCAGHLPMYMQKCL
notes: as for B15
B17: Phage-1110 (Peptide-87 library clone, SEQ ID NO: 1426) (peptide)
peptide: YCEGHLPMYMQKCL
notes: as for B15
B18: Phage-1104 (Peptide-87 library clone, SEQ ID NO: 1420) (peptide)
peptide: YCSEHQIIFIQKCL
notes: as for B15
B19: Phage-1105 (Peptide-87 library clone, SEQ ID NO: 1421) (peptide)
peptide: YCEGHLEIYLAKCL
notes: as for B15
B20: Phage-1106 (Peptide-87 library clone, SEQ ID NO: 1422) (peptide)
peptide: YCDGHTAEFIGKCL
notes: as for B15
B21: Phage-1107 (Peptide-87 library clone, SEQ ID NO: 1423) (peptide)
peptide: YCAGHALEYMGKCL
notes: as for B15
B22: Phage-1108 (Peptide-87 library clone, SEQ ID NO: 1424) (peptide)
peptide: YCEGHLPEYMIKCL
notes: as for B15
B23: Phage-1109 (Peptide-87 library clone, SEQ ID NO: 1425) (peptide)
peptide: YCEGHLPAYMWKCL
notes: as for B15
B24: Phage-1111 (Peptide-87 library clone, SEQ ID NO: 1427) (peptide)
peptide: YCDGHIPEYMTKCL
notes: as for B15
B25: Phage-1112 (Peptide-87 library clone, SEQ ID NO: 1428) (peptide)
peptide: YCDGHSAEYIAKCL
notes: as for B15
B26: Phage-1113 (Peptide-87 library clone, SEQ ID NO: 1429) (peptide)
peptide: YCEGHSAVYMSKCL
notes: as for B15
B27: Phage-1114 (Peptide-87 library clone, SEQ ID NO: 1430) (peptide)
peptide: YCEGHSLEYMMKCV
notes: as for B15
B28: Phage-1115 (Peptide-87 library clone, SEQ ID NO: 1431) (peptide)
peptide: YCDGHAPQYMAKCI
notes: as for B15
B29: Phage-1084 (peptide)
peptide: YCAGHTSEYMSKCL
modifications: cysteine pairing not given here; also: displayed as fusion to phage pIII, linker not given here
B30: Phage-1085 (peptide)
peptide: YCDGHMKEYMLKCL
modifications: cysteine pairing not given here; also: displayed as fusion to phage pIII, linker not given here
B31: Phage-1086 (peptide)
peptide: YCDGHVKEYMYKCL
modifications: cysteine pairing not given here; also: displayed as fusion to phage pIII, linker not given here
B32: Phage-1087 (peptide)
peptide: YCDGHLALYMWKCL
modifications: cysteine pairing not given here; also: displayed as fusion to phage pIII, linker not given here
B33: Phage-1088 (peptide)
peptide: YCDGHLSIYMTKCL
modifications: cysteine pairing not given here; also: displayed as fusion to phage pIII, linker not given here

What follows are binders tested against Anti-CD28 Fab (SEQ ID NOs: 696, 697) (assay: phage ELISA on captured anti-CD28 Fab, wells pre-incubated with CD28 antigen as competitor;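 note: crude clonal phage supernatants added without washing, bound phage read out by HRP-coupled anti-M13 antibody, reference wells given blocking buffer only instead of CD28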).
Target sequence in this assay (VH, as listed by the source, chain 1 of 2): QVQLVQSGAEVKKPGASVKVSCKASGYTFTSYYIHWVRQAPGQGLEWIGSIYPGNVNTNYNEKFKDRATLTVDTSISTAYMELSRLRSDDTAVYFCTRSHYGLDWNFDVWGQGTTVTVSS
Target sequence in this assay (VL, as listed by the source, chain 2 of 2): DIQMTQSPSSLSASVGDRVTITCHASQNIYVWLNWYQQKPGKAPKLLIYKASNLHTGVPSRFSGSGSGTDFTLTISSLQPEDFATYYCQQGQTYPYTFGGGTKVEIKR
Description: (§1) After panning, phage infected bacteria were plated out and colonies picked into 96 well blocks. Clonal phage was then amplified and separated from bacterial cells via centrifugation.
(§2) Clonal phage were harvested as crude supematants and screened via standard ELISAs. […] Prior to the addition of clonal phage, wells were incubated with blocking buffer and CD28 antigen or blocking buffer alone. Without washing or aspirating, clonal phage supematants were then added to the wells and incubated for a short time. Wells were then washed followed by detection of bound phage using a horse radish conjugated anti-M13 antibody. Clonal phage of interest were then sent for sequence analysis.

Row | Binder | Anti-CD28 Fab signal in the presence of CD28 (phage binding ELISA)
1 | B1 | 0.06
2 | B2 | 0.08
3 | B3 | 0.08
4 | B4 | 0.06
5 | B5 | 0.05
6 | B6 | 0.3
7 | B7 | 0.07
8 | B8 | 0.06
9 | B9 | 0.09
10 | B10 | 0.08
11 | B11 | 0.06
12 | B12 | 0.06
13 | B13 | 0.08
14 | B14 | 0.07

Each binder was assayed against Anti-CD28 Fab (SEQ ID NOs: 696, 697) (assay: phage ELISA, clonal phage supernatant on biotinylated anti-CD28 Fab captured on neutravidin plates).
Target sequence in this assay (VH, as listed by the source, chain 1 of 2): as the sequence (VH, as listed by the source, chain 1 of 2) above
Target sequence in this assay (VL, as listed by the source, chain 2 of 2): as the sequence (VL, as listed by the source, chain 2 of 2) above
Description: as §1, §2

Row | Binder | Anti-CD28 Fab signal (phage binding ELISA)
15 | B1 | 1.3
16 | B2 | 1.3
17 | B3 | 1.29
18 | B4 | 1.28
19 | B5 | 1.28
20 | B6 | 1.28
21 | B7 | 1.28
22 | B8 | 1.28
23 | B9 | 1.27
24 | B10 | 1.27
25 | B11 | 1.27
26 | B12 | 1.27
27 | B13 | 1.27
28 | B14 | 1.27

These binders were tested against T1, Anti-CD28 Fab (SEQ ID NOs: 696, 697) (assay: phage ELISA; captured anti-CD28 Fab pre-incubated with CD28 antigen as competitor, anti-M13 HRP detection;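 note: crude clonal phage supernatants screened by ELISA, with wells pre-incubated with CD28 antigen in blocking buffer, compared against wells given blocking buffer alone as control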).
T1 construct: In the phage ELISA the Fab was biotinylated and captured on neutravidin coated plates
T1 sequence (VH, as listed by the source, chain 1 of 2): as the sequence (VH, as listed by the source, chain 1 of 2) above
T1 sequence (VL, as listed by the source, chain 2 of 2): as the sequence (VL, as listed by the source, chain 2 of 2) above
Description: as §1, §2

Row | Binder | Anti-CD28 Fab signal in the presence of CD28 (phage binding ELISA)
29 | B15 | 0.1
30 | B16 | 0.08
31 | B17 | 0.08
32 | B18 | 0.08
33 | B19 | 0.07
34 | B20 | 0.06
35 | B21 | 0.06
36 | B22 | 0.06
37 | B23 | 0.08
38 | B24 | 0.06
39 | B25 | 0.05
40 | B26 | 0.06
41 | B27 | 0.07
42 | B28 | 0.06

Each binder was assayed against T2, Anti-CD28 Fab (SEQ ID NOs: 696, 697) (assay: phage binding ELISA; biotinylated anti-CD28 Fab on neutravidin plate, clonal phage detected with anti-M13 HRP).
T2 construct: In the phage ELISA the Fab was biotinylated and captured on neutravidin coated plates
T2 sequence (VH, as listed by the source, chain 1 of 2): as the sequence (VH, as listed by the source, chain 1 of 2) above
T2 sequence (VL, as listed by the source, chain 2 of 2): as the sequence (VL, as listed by the source, chain 2 of 2) above
Description: as §1, §2

Row | Binder | Anti-CD28 Fab signal (phage binding ELISA)
43 | B29 | 1.36
44 | B30 | 1.36
45 | B31 | 1.36
46 | B32 | 1.36
47 | B33 | 1.36

These binders were tested against T1, Anti-CD28 Fab (SEQ ID NOs: 696, 697) (assay: phage ELISA; biotinylated anti-CD28 Fab on neutravidin plate, clonal phage supernatant, anti-M13 HRP detection;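 note: crude supernatants of single phage clones picked after panning were screened for binding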).

Row | Binder | Anti-CD28 Fab signal (phage binding ELISA)
48 | B15 | 1.33
49 | B16 | 1.33
50 | B17 | 1.31
51 | B18 | 1.32
52 | B19 | 1.32
53 | B20 | 1.32
54 | B21 | 1.32
55 | B22 | 1.32
56 | B23 | 1.31
57 | B24 | 1.31
58 | B25 | 1.31
59 | B26 | 1.31
60 | B27 | 1.3
61 | B28 | 1.3

These binders were tested against T2, Anti-CD28 Fab (SEQ ID NOs: 696, 697) (assay: phage binding ELISA; Fab-coated wells pre-incubated with CD28 antigen as competitor, phage detected with anti-M13 HRP).
Description: as §1, §2

Row | Binder | Anti-CD28 Fab signal in the presence of CD28 (phage binding ELISA)
62 | B29 | 0.07
63 | B30 | 0.06
64 | B31 | 0.06
65 | B32 | 0.17
66 | B33 | 0.07
